{"source": "patent US20160319321", "proteins": {"B1": {"name": "bovine Enterokinase light chain variant (C112A, L134K, I135K) (protein)", "chain": "IVGGSDSREGAWPWVVALYFDDQQVCGASLVSRDWLVSAAHCVYGRNMEPSKWKAVLGLHMASNLTSPQIETRLIDQIVINPHYNKRRKNNDIAMMHLEMKVNYTDYIQPIALPEENQVFPPGRICSIAGWGAKKYQGSTADVLQEADVPLLSNEKCQQQMPEYNITENMVCAGYEAGGVDSCQGDSGGPLMCQENNRWLLAGVTSFGYQCALPNRPGVYARVPRFTEWIQSFLH"}}, "key": {"[1]": {"biological_target": "T1, DVKEGQPLYDEGDR-[Arg34]GLP-1(9-37)", "T1 chain": "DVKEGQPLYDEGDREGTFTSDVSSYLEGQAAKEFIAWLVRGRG"}, "[2]": {"biological_target": "T2, Lys(Dnp)-ESGDR-HGEGT-Lys(Abz)amide", "T2 chain": "KESGDRHGEGTK"}, "[3]": {"biological_target": "T3, Lys(Dnp)-DHGDR-HAEGT-Lys(Abz)amide", "T3 chain": "KDHGDRHAEGTK"}, "[4]": {"biological_target": "T4, Lys(Dnp)-YDEGDR-HAEGT-Lys(Abz)amide", "T4 chain": "KYDEGDRHAEGTK"}, "[5]": {"biological_target": "T5, Lys(Dnp)-QEGDR-EGTFT-Lys(Abz)amide", "T5 chain": "KQEGDREGTFTK"}, "[6]": {"biological_target": "T6, Lys(Dnp)-EDGDR-HGEGT-Lys(Abz)amide", "T6 chain": "KEDGDRHGEGTK"}, "[7]": {"biological_target": "T7, Lys(Dnp)-KDEGDR-HAEGT-Lys(Abz)amide", "T7 chain": "KKDEGDRHAEGTK"}, "[8]": {"biological_target": "T8, Lys(Dnp)-DFGDR-HAEGT-Lys(Abz)amide", "T8 chain": "KDFGDRHAEGTK"}}, "data": [{"protein": "B1", "values": [{"measurement": "Activity (%)", "setting": "[1]", "result": 913, "unit": "%"}, {"measurement": "Activity (%)", "setting": "[2]", "result": 221, "unit": "%"}, {"measurement": "Activity (%)", "setting": "[3]", "result": 545, "unit": "%"}, {"measurement": "Activity (%)", "setting": "[4]", "result": 153, "unit": "%"}, {"measurement": "Activity (%)", "setting": "[5]", "result": 411, "unit": "%"}, {"measurement": "Activity (%)", "setting": "[6]", "result": 462, "unit": "%"}, {"measurement": "Activity (%)", "setting": "[7]", "result": 175, "unit": "%"}, {"measurement": "Activity (%)", "setting": "[8]", "result": 550, "unit": "%"}]}]}
